How the values were obtained:
Experiment in all cases: cell-based or functional assay
[1] = target: squirrel monkey prokineticin receptor 2 (PKR2) (squirrel monkey)
[2] = target: rhesus monkey prokineticin receptor 1 (PKR1) (rhesus monkey)
[3] = target: chimpanzee prokineticin receptor 2 (PKR2) (chimpanzee (Pan troglodytes))

calcium mobilization (aequorin luminescence) in transiently transfected CHO cells [1] [nM] | calcium mobilization (aequorin luminescence) in transiently transfected CHO cells [2] [nM] | calcium mobilization (aequorin luminescence) in transiently transfected CHO cells [3] [nM] | Substance
10 |  |  | recombinant human PK1 (prokineticin 1) (from UniProt P58294 20-101) (ligand)
 | 10 | 10 | recombinant human PK2 (prokineticin 2) (from UniProt Q9HC23 28-129) (ligand)

From US20050143287A1
